B1: Ornithine carbamoyltransferase (Saccharomyces cerevisiae), P05150 (parent)
chain: MSTTASTPSSLRHLISIKDLSDEEFRILVQRAQHFKNVFKANKTNDFQSNHLKLLGRTIALIFTKRSTRTRISTEGAATFFGAQPMFLGKEDIQLGVNESFYDTTKVVSSMVSCIFARVNKHEDILAFCKDSSVPIINSLCDKFHPLQAICDLLTIIENFNISLDEVNKGINSKLKMAWIGDANNVINDMCIACLKFGISVSISTPPGIEMDSDIVDEAKKVAERNGATFELTHDSLKASTNANILVTDTFVSMGEEFAKQAKLKQFKGFQINQELVSVADPNYKFMHCLPRHQEEVSDDVFYGEHSIVFEEAENRLYAAMSAIDIFVNNKGNFKDLK

Variants of: B1
Settings: with argi_yeast CAR1, P00812
argi_yeast CAR1, P00812, sequence (P00812 whole entry): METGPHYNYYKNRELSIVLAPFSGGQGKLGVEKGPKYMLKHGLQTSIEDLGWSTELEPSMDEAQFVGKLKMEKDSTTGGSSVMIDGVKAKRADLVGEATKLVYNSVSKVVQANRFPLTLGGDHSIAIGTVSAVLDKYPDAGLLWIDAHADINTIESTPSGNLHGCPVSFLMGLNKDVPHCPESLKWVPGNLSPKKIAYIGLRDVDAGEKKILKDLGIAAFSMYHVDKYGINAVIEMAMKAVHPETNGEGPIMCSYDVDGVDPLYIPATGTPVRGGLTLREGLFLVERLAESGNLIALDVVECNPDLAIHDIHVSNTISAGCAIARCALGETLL

Variant | effect of a mutation on the interaction
MSTTASTPSSLRHLISIKDLSDEEFRILVQRAQHFKNVFKANKTNDFQSNHLKLLGRTIALIFTKRSTRTRISTEGAATFFGAQPMFLGKEDIQLGVNESFYDTTKVVSSMVSCIFARVNKHEDILAFCKDSSVPIINSLCDKFHPLQAICDLLTIIENFNISLDEVNKGINSKLKMAWIGNANNVINDMCIACLKFGISVSISTPPGIEMDSDIVDEAKKVAERNGATFELTHDSLKASTNANILVTDTFVSMGEEFAKQAKLKQFKGFQINQELVSVADPNYKFMHCLPRHQEEVSDDVFYGEHSIVFEEAENRLYAAMSAIDIFVNNKGNFKDLK [D182N] | decreasing interaction

Reference: IntAct's records for PubMed 12679340
